Results on five molecules are retold here after PMC11672854.

Holding throughout (experiment): ELISA
The target of one test is PDI (PDIA1), P07237. Conditions: chain shown with the change; plates coated with AGR2 or PDI (PDIA1); parent: 40.
Another test concerns the target BSA, P02769. Conditions: chain shown with the change; plates coated with AGR2 or BSA (control); parent: 101.
Test [1] addresses T1, Thioredoxin (TXN), P10599.
T1 chain: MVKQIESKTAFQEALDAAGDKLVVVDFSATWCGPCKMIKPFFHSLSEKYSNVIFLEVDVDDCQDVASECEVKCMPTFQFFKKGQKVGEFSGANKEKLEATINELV
Conditions: chain shown with the change; plates coated with AGR2 or thioredoxin (TXN); parent: 30.

In test [2] the target is anti-AGR2 monoclonal antibody MAb-15 (VH-VL of scFv-15 in a full human IgG1 backbone). Conditions: chain shown with the change; point at 1000 pM mAb-15 (highest concentration); plate coated with the AGR2 mutant; parent: est. 2.8; read off a plot.

Sequence of BSA, P02769 (P02769 25-607): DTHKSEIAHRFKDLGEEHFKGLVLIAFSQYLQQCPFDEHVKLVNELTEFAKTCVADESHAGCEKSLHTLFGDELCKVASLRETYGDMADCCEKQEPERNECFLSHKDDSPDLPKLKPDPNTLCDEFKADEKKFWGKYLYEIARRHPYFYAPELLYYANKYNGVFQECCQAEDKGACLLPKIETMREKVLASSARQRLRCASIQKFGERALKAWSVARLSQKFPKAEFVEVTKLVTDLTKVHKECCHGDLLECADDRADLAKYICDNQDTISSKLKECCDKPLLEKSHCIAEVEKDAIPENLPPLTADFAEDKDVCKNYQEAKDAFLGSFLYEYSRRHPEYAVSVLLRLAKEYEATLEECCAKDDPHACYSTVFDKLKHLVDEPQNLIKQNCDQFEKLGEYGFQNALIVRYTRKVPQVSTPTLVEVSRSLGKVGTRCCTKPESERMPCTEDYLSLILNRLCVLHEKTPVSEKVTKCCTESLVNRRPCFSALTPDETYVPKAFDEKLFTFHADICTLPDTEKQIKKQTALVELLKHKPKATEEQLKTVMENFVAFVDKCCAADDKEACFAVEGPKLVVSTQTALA
Sequence of PDI (PDIA1), P07237 (P07237 18-508): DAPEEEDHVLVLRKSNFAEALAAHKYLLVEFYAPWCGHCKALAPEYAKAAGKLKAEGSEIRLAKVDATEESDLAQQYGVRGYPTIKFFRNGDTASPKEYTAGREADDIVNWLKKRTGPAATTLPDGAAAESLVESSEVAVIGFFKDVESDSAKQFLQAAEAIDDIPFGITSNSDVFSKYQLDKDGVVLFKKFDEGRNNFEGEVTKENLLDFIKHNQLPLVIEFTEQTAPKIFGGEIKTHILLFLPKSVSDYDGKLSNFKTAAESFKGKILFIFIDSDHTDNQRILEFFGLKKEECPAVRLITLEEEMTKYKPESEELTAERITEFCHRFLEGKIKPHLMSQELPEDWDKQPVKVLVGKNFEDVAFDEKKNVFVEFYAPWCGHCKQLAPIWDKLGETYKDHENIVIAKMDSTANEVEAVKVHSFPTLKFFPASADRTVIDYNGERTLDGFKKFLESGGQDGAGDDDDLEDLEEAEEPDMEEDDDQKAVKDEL

B1: anti-AGR2 monoclonal antibody MAb-15 (VH-VL of scFv-15 in a full human IgG1 backbone) S31R; A53Y (protein)
chain 1: EVQLLESGGGLVQPGGSLRLSCAASGFTFSRYAMSWVRQAPGKGLEWVSGISYQGAHTTYADSVKGRFTISRDNSKNTLYLQMNSLRAEDTAVYYCAKTYKGFDYWGQGTLVTVSS
chain 2: DIQMTQSPSSLSASVGDRVTITCRASQSISSYLNWYQQKPGKAPKLLIYSASRLQSGVPSRFSGSGSGTDFTLTISSLQPEDFATYYCQQGRRMPPTFGQGTKVEIK
Consider B1, for which, in the test with PDI (PDIA1), P07237, the other: AGR2 Specificity, PDI/AGR2 (EC50 relative to AGR2 binding) was 451. Also, in the test with BSA, P02769, the other: AGR2 Specificity, BSA/AGR2 (EC50 relative to AGR2 binding) was 751. Besides, in test [1], the other: AGR2 Specificity, TXN/AGR2 (EC50 relative to AGR2 binding) is 266.

B2: Anterior Gradient-2 (AGR2/PDIA17), AGR2 (21-175), 6x-His tag removed, O95994 E60A (protein)
chain: RDTTVKPGAKKDTKDSRPKLPQTLSRGWGDQLIWTQTYEAALYKSKTSNKPLMIIHHLDECPHSQALKKVFAENKEIQKLAEQFVLLNLVYETTDKHLSPDGQYVPRIMFVDPSLTVRADITGRYSNRLYAYEPADTALLLDNMKKALKLLKTEL
B2: the response in test [2] came to 2.3 OD450.

B3: Anterior Gradient-2 (AGR2/PDIA17), AGR2 (21-175), 6x-His tag removed, O95994 S84A (protein)
chain: RDTTVKPGAKKDTKDSRPKLPQTLSRGWGDQLIWTQTYEEALYKSKTSNKPLMIIHHLDECPHAQALKKVFAENKEIQKLAEQFVLLNLVYETTDKHLSPDGQYVPRIMFVDPSLTVRADITGRYSNRLYAYEPADTALLLDNMKKALKLLKTEL
On to B3, for which the response in test [2] is 2.7 OD450.

B4: Anterior Gradient-2 (AGR2/PDIA17), AGR2 (21-175), 6x-His tag removed, O95994 C81A; S84A (protein)
chain: RDTTVKPGAKKDTKDSRPKLPQTLSRGWGDQLIWTQTYEEALYKSKTSNKPLMIIHHLDEAPHAQALKKVFAENKEIQKLAEQFVLLNLVYETTDKHLSPDGQYVPRIMFVDPSLTVRADITGRYSNRLYAYEPADTALLLDNMKKALKLLKTEL
On to B4, for which, in test [2], the response is 2.3 OD450.

B5: Anterior Gradient-2 (AGR2/PDIA17), AGR2 (21-175), 6x-His tag removed, O95994 C81A (protein)
chain: RDTTVKPGAKKDTKDSRPKLPQTLSRGWGDQLIWTQTYEEALYKSKTSNKPLMIIHHLDEAPHSQALKKVFAENKEIQKLAEQFVLLNLVYETTDKHLSPDGQYVPRIMFVDPSLTVRADITGRYSNRLYAYEPADTALLLDNMKKALKLLKTEL
As for B5, in test [2], the response turned out to be 2.8 OD450.
